The values below come from PMC6035183, “ETS transcription factors induce a unique UV damage signature that drives recurrent mutagenesis in melanoma”.

Series [1] deals with T1, ETS1 (ETS1ΔN280) (UniProt P27577 280-440).
T1 sequence: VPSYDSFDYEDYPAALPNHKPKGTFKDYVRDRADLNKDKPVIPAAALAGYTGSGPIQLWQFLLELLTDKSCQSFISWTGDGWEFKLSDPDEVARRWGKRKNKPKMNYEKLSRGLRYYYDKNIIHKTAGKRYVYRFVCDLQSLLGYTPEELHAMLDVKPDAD
The series is described as follows: EMSA; 4 pmol DNA, 0-32 pmol ETS1; two shifted bands at low ETS1; 25 mM Tris-Cl pH 7.9, 10% glycerol, 6 mM MgCl2, 0.5 mM EDTA, 60 mM KCl, 0.5 mM DTT, 200 ug/ml BSA; 40 ul, 40 min on ice; 8% native PAGE. The following applies: protein: recombinant; label: 5'-32P on S14 (TTCC strand); blunt.

In series [2] the target is T1, ETS1 (ETS1ΔN280). Put plainly: EMSA; 4 pmol DNA, 0-32 pmol ETS1; multiple shifted bands; 25 mM Tris-Cl pH 7.9, 10% glycerol, 6 mM MgCl2, 0.5 mM EDTA, 60 mM KCl, 0.5 mM DTT, 200 ug/ml BSA; 40 ul, 40 min on ice; 8% native PAGE. The following applies: protein: recombinant; label: 5'-32P on S15 (TTCC strand); blunt. On the technique in general: Mobility shift assays separate free from complexed probe on a gel.

B1: RPL13A promoter fragment (dsDNA)
DNA 1: GTCCAATCCGGACATTCTTCCGGTTGGACC
DNA 2: GGTCCAACCGGAAGAATGTCCGGATTGGAC
modifications: 5'-biotin on S13
On to B1, for which the binding result with ETS1 (ETS1ΔN280) [1] is “binds”.

B2: SDHD promoter fragment (dsDNA)
DNA 1: CTCGACTTCCGGTTCACCCAGCATTTCCTCTTCCCTGTT
DNA 2: AACAGGGAAGAGGAAATGCTGGGTGAACCGGAAGTCGAG
modifications: 5'-biotin on S16
For B2, the binding result in the series with ETS1 (ETS1ΔN280) [2] was “binds”.
